Results from CN112048019A.

Legend:
[1] = target: CD47 on human cells (Jurkat target cells; human peripheral blood erythrocytes) (human) (UniProt Q08722); assay: cell-based or functional assay
[2] = target: 重组CD47-Fc融合蛋白 (human) (UniProt Q08722); assay: competition ELISA: CD47-Fc coated, antibody blocks binding of SIRPα-His, anti-His-HRP detection
[3] = target: CD47蛋白 (analyte in the ForteBio assay) (human) (UniProt Q08722); assay: BLI (ForteBio), antibody captured on Protein A sensor, CD47 protein in solution at 6 concentrations

B1: 市售抗体B6H12 (antibody, from another filing, V domains shown)
VH: EVQLVESGGDLVKPGGSLKLSCAASGFTFSGYGMSWVRQTPDKRLEWVATITSGGTYTYYPDSVKGRFTISRDNAKNTLYLQIDSLKSEDTAIYFCARSLAGNAMDYWGQGTSVTVSS
VL: DIVMTQSPATLSVTPGDRVSLSCRASQTISDYLHWYQQKSHESPRLLIKFASQSISGIPSRFSGSGSGSDFTLSINSVEPEDVGVYYCQNGHGFPRTFGGGTKLEIK
Q: Which results are given for B1?
A: 吞噬率/% (macrophage phagocytosis of CFSE-labelled Jurkat cells, flow cytometry) [1]: 18%; EC50 [2]: 143 nM; Kd [3]: 7.16 nM; koff [3]: 0.000463 s⁻¹; kon [3]: 64700 M⁻¹ s⁻¹
